Among the data in CN111944047A (CHONGQING PREC BIOTECH CO LTD, dated 2020) are Kd, koff and kon values, retold here.

The target in the test is T1, hBCMA-hFc (human, UniProt Q02223 1-54, limits assumed).
T1 construct: not shown: human Fc (hFc)
T1 sequence (looked up): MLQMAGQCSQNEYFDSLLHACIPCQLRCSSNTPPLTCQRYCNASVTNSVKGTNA
The test can be described thus: Fortebio Octet K2 / Nicoya OpenSPR, hBCMA-hFc loaded on sensor, scFv in solution. For orientation: BLI is a label-free optical method that tracks binding on a fibre tip over time.

B1: ScFv2 (scFv)
scFv: DIVLTQSPASLAVSLGQRATITCRASESVSIHGTHLMHWYQQKPGQPPVLVIYAASNLESGVPARFSGSGSGTDFTLKIHPVEAEDVGVYYCQQSIEDPRTFGGGTKLEIKGSTSGSGKPGSGEGSTKGQVQLVQSGPEVKKPGASVKVSCKASGYTFTDYYMNWVRQMHGKGLEWMGVINPYNGGTDYNQKFKGRVTITADKSTSTAYMELSSLRSEDTAVYYCARSVYDYPFDYWGQGTLVTVSS
notes: also called 人源化ScFv2; 靶向BCMA人源化单克隆抗体
What is called Kd is the free concentration of one partner at which half of the binding sites on the other are occupied at equilibrium, for simple one-to-one binding. Low values mean tighter binding, high ones weaker binding. By koff is commonly meant the first-order rate constant of dissociation. A lower koff goes with a long-lived complex. For orientation: kon means a measure of how fast the partners come together. Consider B1, for which binding was put at a Kd of 16.4 nM, the off-rate (koff) is 0.00437 s⁻¹ and the kon was found to be 266000 M⁻¹ s⁻¹.

B2: ScFv1 (scFv)
scFv: DIVMTQSPDSLAVSLGERATINCRASESVSIHGTHLMHWYQQLPGTPPKLLIYAASNLESGVPDRFSGSGSGTDFTLKISPVEAEDVGVYYCQQSIEDPRTFGGGTKLEIKGSTSGSGKPGSGEGSTKGQVQLVQSGPALVKPGASVKVSCKASGYTFTDYYMNWVRQAHGQGLEWMGVINPYNGGTDYNQKFKGRVTMTRDTSISTAYMELSSLRSEDTAVYYCARSVYDYPFDYWGQGTLVTVSS
notes: The scFv is VL-Linker-VH, expressed in CHO cells and purified; Any tag on the purified protein is not described for ScFv1; also called 靶向BCMA人源化单克隆抗体; 抗BCMA的人源化单链抗体
On to B2, for which binding was put at a Kd of 4.65 nM, the koff came out at 0.000438 s⁻¹ and the association rate constant (kon) is 94200 M⁻¹ s⁻¹.
